The values below come from publication doi:10.1101/2024.12.18.629111 (bioRxiv, 2024).

What all share (experiment): pull-down
One experiment addresses T1, CBP-Upf1-FL (S. cerevisiae, UniProt P30771 1-971).
T1 sequence (looked up): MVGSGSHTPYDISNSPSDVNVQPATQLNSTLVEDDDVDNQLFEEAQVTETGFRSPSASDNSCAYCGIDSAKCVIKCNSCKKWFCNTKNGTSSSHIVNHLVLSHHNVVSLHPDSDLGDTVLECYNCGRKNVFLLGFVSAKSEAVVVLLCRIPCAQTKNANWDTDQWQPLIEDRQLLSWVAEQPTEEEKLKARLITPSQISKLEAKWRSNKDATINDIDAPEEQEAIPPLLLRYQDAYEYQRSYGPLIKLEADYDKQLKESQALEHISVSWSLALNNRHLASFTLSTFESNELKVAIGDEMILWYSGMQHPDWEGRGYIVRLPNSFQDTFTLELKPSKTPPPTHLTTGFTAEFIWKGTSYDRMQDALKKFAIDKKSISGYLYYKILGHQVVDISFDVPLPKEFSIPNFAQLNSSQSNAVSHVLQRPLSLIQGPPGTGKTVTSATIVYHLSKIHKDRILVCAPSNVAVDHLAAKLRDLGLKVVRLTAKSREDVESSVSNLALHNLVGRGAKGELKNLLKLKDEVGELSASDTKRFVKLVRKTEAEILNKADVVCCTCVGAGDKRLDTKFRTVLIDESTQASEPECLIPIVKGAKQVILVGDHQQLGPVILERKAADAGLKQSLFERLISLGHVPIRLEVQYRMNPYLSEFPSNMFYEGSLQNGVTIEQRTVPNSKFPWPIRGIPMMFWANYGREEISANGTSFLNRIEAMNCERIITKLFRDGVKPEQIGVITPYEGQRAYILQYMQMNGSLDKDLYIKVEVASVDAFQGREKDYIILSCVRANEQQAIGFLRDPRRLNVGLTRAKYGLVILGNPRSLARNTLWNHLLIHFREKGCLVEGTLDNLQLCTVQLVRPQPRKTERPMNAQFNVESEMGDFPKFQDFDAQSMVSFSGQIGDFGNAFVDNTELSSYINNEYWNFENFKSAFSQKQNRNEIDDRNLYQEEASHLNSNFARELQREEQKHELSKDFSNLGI

A further experiment addresses T2, CBP-Upf1-CH-HD (S. cerevisiae, UniProt P30771 54-851).
T2 sequence (looked up): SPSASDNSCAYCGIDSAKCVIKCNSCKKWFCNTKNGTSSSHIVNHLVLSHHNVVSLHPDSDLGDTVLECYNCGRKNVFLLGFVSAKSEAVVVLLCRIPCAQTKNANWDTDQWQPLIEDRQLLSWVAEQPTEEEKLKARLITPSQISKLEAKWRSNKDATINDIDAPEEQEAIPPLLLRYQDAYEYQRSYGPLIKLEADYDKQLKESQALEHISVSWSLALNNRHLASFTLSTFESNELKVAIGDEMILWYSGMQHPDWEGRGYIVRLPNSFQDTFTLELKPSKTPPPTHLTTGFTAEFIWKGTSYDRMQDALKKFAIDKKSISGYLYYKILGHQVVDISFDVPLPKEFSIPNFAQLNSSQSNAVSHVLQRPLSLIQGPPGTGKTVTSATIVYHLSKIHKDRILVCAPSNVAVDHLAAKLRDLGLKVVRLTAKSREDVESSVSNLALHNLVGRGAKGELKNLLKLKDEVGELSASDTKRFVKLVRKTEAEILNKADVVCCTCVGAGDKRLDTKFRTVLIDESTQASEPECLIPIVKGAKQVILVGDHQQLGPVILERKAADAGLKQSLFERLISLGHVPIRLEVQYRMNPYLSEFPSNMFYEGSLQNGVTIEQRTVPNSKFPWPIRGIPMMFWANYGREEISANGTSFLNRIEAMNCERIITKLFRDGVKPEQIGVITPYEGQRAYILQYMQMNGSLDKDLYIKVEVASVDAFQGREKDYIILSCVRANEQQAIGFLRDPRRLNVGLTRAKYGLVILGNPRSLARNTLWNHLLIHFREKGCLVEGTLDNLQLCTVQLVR

A further experiment concerns the target T3, CBP-Upf1-HD (S. cerevisiae, UniProt P30771 221-851).
T3 sequence (looked up): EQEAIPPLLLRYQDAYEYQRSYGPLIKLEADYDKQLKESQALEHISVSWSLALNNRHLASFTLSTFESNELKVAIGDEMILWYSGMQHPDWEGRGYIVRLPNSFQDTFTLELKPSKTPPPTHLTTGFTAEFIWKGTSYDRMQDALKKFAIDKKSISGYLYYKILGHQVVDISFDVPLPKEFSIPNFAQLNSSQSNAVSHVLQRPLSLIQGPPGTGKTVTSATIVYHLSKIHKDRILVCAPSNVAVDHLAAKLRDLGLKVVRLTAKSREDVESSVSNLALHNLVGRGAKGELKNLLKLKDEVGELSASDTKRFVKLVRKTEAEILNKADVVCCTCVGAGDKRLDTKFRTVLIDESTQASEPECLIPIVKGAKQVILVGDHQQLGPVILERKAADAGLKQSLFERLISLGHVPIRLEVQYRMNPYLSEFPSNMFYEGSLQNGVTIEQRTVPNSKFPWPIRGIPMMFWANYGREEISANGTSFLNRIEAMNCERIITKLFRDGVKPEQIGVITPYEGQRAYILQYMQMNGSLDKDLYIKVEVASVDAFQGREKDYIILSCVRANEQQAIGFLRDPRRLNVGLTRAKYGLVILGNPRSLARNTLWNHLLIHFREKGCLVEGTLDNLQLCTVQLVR

A further experiment concerns the target T4, CBP-Upf1-HD-Ct (S. cerevisiae, UniProt P30771 221-971).
T4 sequence (looked up): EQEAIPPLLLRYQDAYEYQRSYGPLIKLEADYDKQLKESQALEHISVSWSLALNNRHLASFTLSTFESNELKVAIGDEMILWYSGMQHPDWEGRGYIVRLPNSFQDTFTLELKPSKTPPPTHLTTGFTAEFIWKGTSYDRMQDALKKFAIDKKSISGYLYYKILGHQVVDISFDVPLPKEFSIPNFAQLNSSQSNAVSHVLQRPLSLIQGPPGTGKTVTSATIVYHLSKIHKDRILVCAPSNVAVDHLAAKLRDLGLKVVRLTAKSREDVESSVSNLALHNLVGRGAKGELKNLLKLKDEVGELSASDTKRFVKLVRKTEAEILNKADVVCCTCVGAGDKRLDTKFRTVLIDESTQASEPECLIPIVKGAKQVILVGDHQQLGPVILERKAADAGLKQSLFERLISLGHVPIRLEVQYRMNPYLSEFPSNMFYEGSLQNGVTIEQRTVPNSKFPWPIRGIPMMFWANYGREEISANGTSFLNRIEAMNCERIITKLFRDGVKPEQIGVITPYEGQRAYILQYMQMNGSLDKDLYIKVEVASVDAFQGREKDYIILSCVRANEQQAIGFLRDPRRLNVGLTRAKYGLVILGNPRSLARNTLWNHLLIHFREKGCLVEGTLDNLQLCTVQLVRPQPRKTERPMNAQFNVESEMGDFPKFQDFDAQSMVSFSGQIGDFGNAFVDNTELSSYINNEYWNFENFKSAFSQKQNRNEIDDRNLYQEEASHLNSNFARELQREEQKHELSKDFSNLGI

B1: GST-Ebs1 (aa 1-591) (domain or fragment, S. cerevisiae, UniProt Q03466 1-591, looked up)
chain: MEPSNTQKEDLPTAFNGIKSQLNSILKSNQLFQDYALLNGFLAFVHSKLNAAILTSIESQCGKSFAADLDSFDQSSISSILDFSWESVHYPIFKWFQMWRNYILFEKENKKQQTKFIDFRKMNSKMLKFFKTVQNFYVNVINTVYKKYDISVLLPKRIIQDLKLSDIENTTNVGDILAVKTFNSSSPLAHLIPTLFHRCLLFLGTAYRYKTLLEEISNKYSISNFKKSLDFFRLASLVLPSAGETYSQAGAIFLQTGNLGIAVFNFVKGMMTKMPSPVSIKNFGALMVDNKSSLNRSLHTTIMNTYLQESKGPRTPAKEILEFYFLGLFGSVWSPTSWRDDTKPNQLNNGIKLRHLENALYETMSARYLNNIKTIFHNLIITIGGFHLLLKRRSDVSAKTLKDLRSNELDYLNFAFKYIAHILNDIVKESWSENPEVSEILGMVRIINCWIKANPMVLQYSQSNLEFVNALAYLINDIVKKKPSPSFSITEHIPKRTYWFEEDLMVKGLSFVNFQLSDFDDYEKILEMDHSLDRLIGNPPLCDKLSASSEMLLRLQAVVNISSQLLQNNNCGVEWSDNKSRYIFNKKIGFK
Turning to B1, the binding result in the experiment with CBP-Upf1-FL is listed as “binds”.

B2: HisSUMO-tagged Ebs1 (aa 1-591) (domain or fragment, S. cerevisiae, UniProt Q03466 1-591, looked up)
chain: MEPSNTQKEDLPTAFNGIKSQLNSILKSNQLFQDYALLNGFLAFVHSKLNAAILTSIESQCGKSFAADLDSFDQSSISSILDFSWESVHYPIFKWFQMWRNYILFEKENKKQQTKFIDFRKMNSKMLKFFKTVQNFYVNVINTVYKKYDISVLLPKRIIQDLKLSDIENTTNVGDILAVKTFNSSSPLAHLIPTLFHRCLLFLGTAYRYKTLLEEISNKYSISNFKKSLDFFRLASLVLPSAGETYSQAGAIFLQTGNLGIAVFNFVKGMMTKMPSPVSIKNFGALMVDNKSSLNRSLHTTIMNTYLQESKGPRTPAKEILEFYFLGLFGSVWSPTSWRDDTKPNQLNNGIKLRHLENALYETMSARYLNNIKTIFHNLIITIGGFHLLLKRRSDVSAKTLKDLRSNELDYLNFAFKYIAHILNDIVKESWSENPEVSEILGMVRIINCWIKANPMVLQYSQSNLEFVNALAYLINDIVKKKPSPSFSITEHIPKRTYWFEEDLMVKGLSFVNFQLSDFDDYEKILEMDHSLDRLIGNPPLCDKLSASSEMLLRLQAVVNISSQLLQNNNCGVEWSDNKSRYIFNKKIGFK
As for B2, the binding result with CBP-Upf1-FL is on record as “binds”.

B3: GST-Dcp2-UBD1 (domain or fragment, S. cerevisiae, UniProt P53550 434-508, looked up)
chain: GYSSSSPGQLLDILNSKKPDSNVQSSKKPKLKILQRGTDLNSIKQNNNDETAHSNSQALLDLLKKPTSSQKIHAS
With B3, the binding result with CBP-Upf1-FL and with CBP-Upf1-CH-HD was “binds” throughout.

B4: TS-Nmd4-His (natural protein, S. cerevisiae, UniProt Q12129 1-218, looked up)
chain: MTQYNFIIDASAFEKGLGNIKRWCSDCTEAVTLNFYIPTFTLNELDFLQQRRKSFAARESLKFIDRLDDSKFANLKVFIEFPEVLDIILWSDVMEHNDSSGKINIAKLPKRLKNLLKSCIYKCYLEGNEGLHWFLISEDPQIREMAMQCNIPSCSIVDVDSILSKDMNDKSFRESEKFNNMMLKNGTKEESENGREIIRTNFNKTVYASRGTGELWSP
With B4, the binding result in the experiment with CBP-Upf1-HD, with CBP-Upf1-HD-Ct, with CBP-Upf1-FL and with CBP-Upf1-CH-HD was “binds” each time.

B5: GST-Dcp2-UBD (domain or fragment, S. cerevisiae, UniProt P53550 434-720, looked up)
chain: GYSSSSPGQLLDILNSKKPDSNVQSSKKPKLKILQRGTDLNSIKQNNNDETAHSNSQALLDLLKKPTSSQKIHASKPDTSFLPNDSVSGIQDAEYEDFESSSDEEVETARDERNSLNVDIGVNVMPSEKDSRRSQKEKPRNDASKTNLNASAESNSVEWGPGKSSPSTQSKQNSSVGMQNKYRQEIHIGDSDAYEVFESSSDEEDGKKLEELEQTQDNSKLISQDILKENNFQDGEVPHRDMPTESNKSINETVGLSSTTNTVKKVPKVKILKRGETFASLANDKKA
For the molecule B5, the binding result with CBP-Upf1-FL and with CBP-Upf1-CH-HD was “binds” throughout.
